Several values for one entry are separate records, joined by “and”; a condition that tells them apart may be missing. Equal entries are not always repeated.
T1: Human soluble IL-6R (human, UniProt P08887 20-358)
T1 construct: Soluble recombinant form; biotinylated in some assays; also called hIL-6R; human IL-6R
T1 sequence (looked up): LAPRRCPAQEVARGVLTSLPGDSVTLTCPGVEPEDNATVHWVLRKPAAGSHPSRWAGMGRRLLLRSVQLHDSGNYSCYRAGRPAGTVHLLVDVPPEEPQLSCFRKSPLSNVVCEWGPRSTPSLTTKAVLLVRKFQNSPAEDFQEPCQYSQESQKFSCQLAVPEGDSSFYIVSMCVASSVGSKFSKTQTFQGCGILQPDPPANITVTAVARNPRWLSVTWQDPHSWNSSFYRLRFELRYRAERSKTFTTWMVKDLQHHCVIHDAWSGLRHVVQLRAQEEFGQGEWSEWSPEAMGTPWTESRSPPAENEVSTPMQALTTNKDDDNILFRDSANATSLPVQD

T2: Mouse IL-6R (mouse, UniProt P22272 20-364, limits assumed)
T2 construct: also called mouse sIL-6R
T2 sequence (looked up): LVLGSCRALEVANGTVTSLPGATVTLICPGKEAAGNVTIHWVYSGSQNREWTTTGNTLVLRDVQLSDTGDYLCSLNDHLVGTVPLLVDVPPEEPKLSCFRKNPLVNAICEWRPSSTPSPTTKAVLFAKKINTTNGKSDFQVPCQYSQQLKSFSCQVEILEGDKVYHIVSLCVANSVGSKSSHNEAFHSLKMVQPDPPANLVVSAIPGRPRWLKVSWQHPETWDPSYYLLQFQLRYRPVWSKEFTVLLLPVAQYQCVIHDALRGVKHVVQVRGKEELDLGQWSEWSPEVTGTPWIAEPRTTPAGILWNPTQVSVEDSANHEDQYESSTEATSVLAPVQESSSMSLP

T3: Human membrane IL-6R on cells (human, UniProt P08887 20-468)
T3 sequence (looked up): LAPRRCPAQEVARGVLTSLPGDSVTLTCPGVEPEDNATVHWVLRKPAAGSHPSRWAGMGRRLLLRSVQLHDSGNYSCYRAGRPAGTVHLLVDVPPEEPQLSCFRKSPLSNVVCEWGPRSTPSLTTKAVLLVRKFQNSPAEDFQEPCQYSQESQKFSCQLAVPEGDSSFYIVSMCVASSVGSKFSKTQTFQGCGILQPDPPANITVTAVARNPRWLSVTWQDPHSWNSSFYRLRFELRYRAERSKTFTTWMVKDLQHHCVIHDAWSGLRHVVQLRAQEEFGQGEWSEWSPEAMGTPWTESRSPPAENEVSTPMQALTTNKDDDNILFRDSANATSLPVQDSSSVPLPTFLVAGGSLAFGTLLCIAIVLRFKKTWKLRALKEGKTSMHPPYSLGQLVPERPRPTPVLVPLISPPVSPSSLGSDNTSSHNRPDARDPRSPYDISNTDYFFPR

B1: Cyno IL-6R (receptor, cynomolgus monkey)
chain: EVARGVLTSLPGDSVTLTCPGGEPEDNATVHWVLRKPAEGSHLSRWAGVGRRLLLRSVQLHDSGNYSCYRAGRPAGTVHLLVDVPPEEPQLSCFRKSPLSNVVCEWGPRSTPSPTTKAVLLVRKFQNSPAEDFQEPCQYSQESQKFSCQLAVPEGDSSFYIVSMCVASSVGSKLSKTQTFQGCGILQPDPPANITVTAVARNPRWLSVTWQDPHSWNSSFYRLRFELRYRAERSKTFTTWMVKDLQHHCVIHDAWSGLRHVVQLRAQEEFGQGEWSEWSPEAMGTPWTESRSPPAENEVSTPTQAPTTNKDDDNILSGDSANATSLPVQDSSSVPLP
notes: also called cynomolgus monkey IL-6R; recombinant cyno sIL-6R

How the values were obtained:
Human soluble IL-6R [1] = target: T1, Human soluble IL-6R; experiment: inhibition of the IL-6/IL-6R interaction, summary table C-13
Description: (§1) Finally streptavidin donor beads were added and after 1 hour incubator the plate was read on the Envision microplate reader.

Human soluble IL-6R [2] = target: T1, Human soluble IL-6R; experiment: Biacore, binding to IL-6R (parent value)
Human soluble IL-6R [3] = target: T1, Human soluble IL-6R; experiment: Alphascreen, inhibition of bio-IL-6 binding to IL-6R
Description: as §1

Human soluble IL-6R [4] = target: T1, Human soluble IL-6R; experiment: Alphascreen IL-6/IL-6R competition (IL-6R 0.3 nM, bio-IL-6 3 nM); row EC50 of the fit table, axis [competitor], M; blocked ligand IL-6
Human soluble IL-6R [5] = target: T1, Human soluble IL-6R; experiment: Alphascreen IL-6/IL-6R competition with purified Nanobody; row EC50 of the table, axis [inhibitor], M; blocked ligand IL-6
Mouse IL-6R = target: T2, Mouse IL-6R; experiment: ELISA: plate coated with 1 µg/ml mouse IL-6R, 500 nM Nanobody, anti-myc + anti-mouse-HRP
Description: Detection was performed with anti-myc and anti-mouse-HRP as first and second antibody respectively.

[6] = target: T3, Human membrane IL-6R on cells; experiment: cell-based or functional assay
Human soluble IL-6R [7] = target: T1, Human soluble IL-6R; experiment: Biacore off-rate, periplasmic extracts
[8] = target: T3, Human membrane IL-6R on cells; experiment: cell-based or functional assay; remark: listed apart in the source
[9] = target: T3, Human membrane IL-6R on cells; experiment: cell-based or functional assay; remark: listed apart in the source
Human soluble IL-6R [10] = target: T1, Human soluble IL-6R; experiment: Alphascreen, 100 nM Nanobody, 0.4 nM bio-IL-6R; competitor: reference Fab
[11] = target: T3, Human membrane IL-6R on cells; experiment: cell-based or functional assay; remark: listed apart in the source
Human soluble IL-6R [12] = target: T1, Human soluble IL-6R; experiment: summary table C-13 of Nanobody characteristics, Kd on IL-6R
Description: (§2) Nanobodies were injected at 5 different concentrations between 1 and 50 nM. Flow rate was 45 μl/min in all experiments. Association and dissociation phase were 3 and 10 min, respectively. The chip was regenerated using Glycine/HCl pH 1.5.

Human soluble IL-6R [13] = target: T1, Human soluble IL-6R; experiment: competition for IL-6R, competitor reference Fab, summary table C-13
Human soluble IL-6R [14] = target: T1, Human soluble IL-6R; experiment: SPR Biacore 3000, IL-6R amine-coupled to CM5
Description: as §2

Human soluble IL-6R [15] = target: T1, Human soluble IL-6R; experiment: Biacore off-rate, periplasmic extract
Cyno IL-6R = target: B1; experiment: SPR Biacore 3000, cyno IL-6R amine-coupled to CM5
Description: Remaining reactive groups were inactivated. […] Each sample was injected for 4 min at a flow rate of 45 μl/min to allow for binding to chip-bound antigen. Next, binding buffer without Nanobody was sent over the chip at the same flow rate to allow for dissociation of bound Nanobody.

Human soluble IL-6R [16] = target: T1, Human soluble IL-6R; experiment: Alphascreen IL-6/IL-6R competition (IL-6R 0.3 nM, bio-IL-6 3 nM); row EC50 of the fit table, axis [competitor], M; blocked ligand IL-6; remark: listed apart in the source
PMP20A11 = target: T4, PMP20A11; experiment: competition ELISA: IL6R20A11 (0.4 nM) pre-incubated with a series of recombinant sIL-6R; free IL6R20A11 captured on biotinylated human sIL-6R on neutravidin
T4 construct: also called IL6R20A11; IL6R300; not shown: c-myc and (His)6 tags

IC50 (Human soluble IL-6R [1]) [nM] | Kd (Human soluble IL-6R [2]) [nM] | IC50 (Human soluble IL-6R [3]) [nM] | IC50 (Human soluble IL-6R [5]) [nM] | binding result (Mouse IL-6R) | IC50 (nM) + HSA, XG-1 cell proliferation [6] [nM] | IC50 (nM), XG-1 cell proliferation [6] [nM] | IC50 (nM), TF1 cell proliferation [8] [nM] | IC50 values (nM), XG-1 assay [9] [nM] | Residual reference-Fab binding to IL-6R (%) (Human soluble IL-6R [10]) | IC50 (nM) XG-1 [11] [nM] | Kd (Human soluble IL-6R [12]) [nM] | Ref Fab competition (%) (Human soluble IL-6R [13]) | Kd (Human soluble IL-6R [14]) | koff (Human soluble IL-6R [14]) | kon (Human soluble IL-6R [14]) | koff (Human soluble IL-6R [15]) [s⁻¹] | Binder | also measured
0.05 | 0.7 | 0.0477 | 0.0505 | no binding (tested: 500 nM) | 1.3 | 1.4 | 5.2 | 1.4 | 25 | 1.4 | 0.5 | 25 | 0.5 nM and 0.8 nM | 0.000121 s⁻¹ and 0.000109 s⁻¹ and 0.000178 s⁻¹ | 231000 M⁻¹ s⁻¹ and 137000 M⁻¹ s⁻¹ | 0.000178 | IL6R13 (VHH, also called PMP35H4; not shown: C-terminal c-myc and (His)6 tags) VHH: EVQLVESGGGLVQPGGSLRLSCAASGFTFDDYGMSWVRQAPGRATEWVSAISWNGNNTYYTESMKGRFTISRDNAKNTVYLQMNSLKPEDTAVYYCVKGSTAIVGVPPTYPDEYDYWGQGTQVTVSS | IC50 (Human soluble IL-6R [4]): 0.0644 nM; koff (Human soluble IL-6R [7]): 0.00021 s⁻¹
0.72 | 3 | 0.716 | 0.105 | no binding (tested: 500 nM) | 17.5 | 16.2 | 62.1 | 17 | 5 | 16.2 | 3 | 5 | 3 nM | 0.00147 s⁻¹ and 0.0016 s⁻¹ | 484000 M⁻¹ s⁻¹ | 0.0016 | IL6R03 (VHH, also called PMP31A4; not shown: C-terminal c-myc and (His)6 tags) VHH: EVQLVESGGGLVQAGGSLRLSCAASGSIFKVNAMGWYRQAPGKQRELVAGIISGGSTNYADSVKGRLTISRDNAKNTVYLQMNSLKPEDTAVYYCSFVTTNSDYDLGRDYWGQGTQVTVSS | Kd (Cyno IL-6R): 4.4 nM; koff (Cyno IL-6R): 0.00164 s⁻¹; kon (Cyno IL-6R): 370000 M⁻¹ s⁻¹; IC50 (Human soluble IL-6R [16]): 0.187 nM
 |  |  |  |  |  |  |  |  |  |  |  |  |  |  |  |  | B1 | IC50 (read off the curve) (PMP20A11): ~3 ng/mL

— patent publication US20120077731A1 (Ablynx, published 2012)
